Data on two molecules can be found in patent publication US7662388B2, “Endogenous peptide and active subfragments thereof” (Innoventus Project AB, priority 2003, dated 2010).

One assay relates to primary BCE cells. The experiment in a line: comparative study pep2/pep3, chemotaxis. The format is cell-based, bovine. The following applies: 50 ng/ml peptide, FGF-2 10 ng/ml, Zn2+-acetate; listed as SEQ.ID.NO:4. The procedure: Primary endothelial cells were starved over night in 0.5% normal calf serum. A migration assay was performed in a modified Boyden chamber as described earlier (Auerbach et al., 1991) using micropore polycarbonate filters (8 μm thick, 8 μm pore) coated with type-1 collagen solution at 100 μg/ml (Vitrogen 100, Collagen Corp). Cells were trypsinized and resuspended at 7.5×10^5 cells/ml in Dulbecco's modified essential medium (Invitrogen) containing 0.25% BSA and Trasylol at 1000 KIE. The cell suspension was added in the upper chamber and FGF-2 (10 ng/ml), HRGP (100 ng/ml), peptide 2 or 3 (50 ng/ml) in medium containing 0.25% BSA were added to the lower chamber. The peptides were dissolved in PBS containing a 10-fold molar excess (Zn:peptide) of Zn^2+-acetate. After 5 h at 37° C., cells that had migrated through the filter were stained with Giemsa and counted using the Easy Image Analysis software. All samples were analyzed in at least six wells for each treatment. Results of the study are illustrated in FIG. 7.

Assay [1] relates to chicken chorioallantoic membrane (CAM). The experiment in a line: chicken chorioallantoic membrane (CAM) angiogenesis assay. The format is in vivo. The procedure: The effect of HRGP on anglogenesis was tested in the chicken chorioallantoic membrane (CAM) assay.
The conditions for the chorioallantoic membrane (CAM) assay followed essentially a previously described procedure (Friedlander et al (1995), Dixelius et al, (2000)). FGF-2 (Boehringer Mannheim) and VEGF-A (Peprotech) was used at 0.2 mg per filter and purified pHRGP or rHRGP at 3 mg per filter. The treated CAM's were inspected in a light microscope and the score, from 0 (low) to 3 (high) was based on the number of vessel branch points. Average values for 5-6 embryos were recorded.
A filter disc soaked in vehicle or growth factor, with or without HRGP, was placed on top of the CAM in the vicinity of a large vessel and incubated for three days. Treatment of the CAM with growth factors, such as FGF-2, stimulated angiogenesis (FIG. 1C; Table 1).

The next assay has as its system T241 fibrosarcoma cells. Description: fibrosarcoma tumour growth in mice (HRGP). The class given is in vivo. Conditions: 4 mg/kg/day s.c. daily, control PBS, 11 days. As for the experimental part:
Animal work was carried out at the local animal facility and was approved by the Uppsala University board of animal experimentation and thus performed according to the UKCCCR guidelines for the welfare of animals in experimental neoplasia (Workman et al (1988)). The mice were anesthetized with isoflurane (Forene; Abbott) during all manipulations. Female, 5 week old, C57BL6/1 mice (Mollegard/Bomhultgard, Denmark) were injected with 0.5×10^6 T241 fibrosarcoma cells subcutaneously (s.c.) into the left flank. Animals carrying palpable tumours were randomized (n=7-10 animals/treatment group) and received treatment with vehicle (PBS), 4 mg/kg/day of pHRGP or 5 mg/kg/day of human IgG or His-HRGP, given as daily subcutaneous injections in the right flank. The tumours were measured with a caliper once a day, in a blind procedure, and volumes were calculated by the formula […]. When the tumours reached the upper limit of 2 cm^3, the mice were sacrificed. Three animals in each group were perfused with 4% paraformaldehyde in PBS pH 7.4. Tumours were embedded in paraffin according to standard histological procedures and sectioned at […] thickness.
C57/bl6 mice were inoculated subcutaneously with T241 fibrosarcoma cells on their left flank and when the tumours were palpable (after 4-6 days), a daily treatment was initiated with HRGP or control (PBS; FIG. 2A, or human IgG; FIG. 2B). Endostatin was included in one study for comparison (FIG. 2B). The treatment was given as subcutaneous injections in the right flank until the size of the control tumours reached the upper limit of […] (11 days; FIG. 2A, 14 days; FIG. 2B). Injections with both pHRGP (4 mg/kg/day) and His-HRGP (5 mg/kg/day) led to a drastic reduction in tumour growth and at the time of sacrifice, the size of the tumours was reduced by 67% (FIG. 2A) and 61% (FIG. 2B) respectively, compared to control-treated animals. Endostatin treatment (25 mg/kg/day) lacked significant inhibitory effect on tumour growth in this model (32% decrease).

For “Pep3: 25 amino acid subfragment of the central region, amino acids 365-389 of mature human HRGP, described in WO02/064621 (GHHPHGHHPHGHHPHGHHPHGHHPH; listed as Homo sapiens) [reference compound]”, the “FGF-2-induced chemotaxis of primary BCE cells” value with primary BCE cells is “not to be active for inhibiting angiogenesis”.

B1: pHRGP: HRGP purified from human plasma (protein)
chain: VSPTDCSAVEPEAEKALDLINKRRRDGYLFQLLRIADAHLDRVENTTVYYLVLDVQESDCSVLSRKYWNDCEPPDSRRPSEIVIGQCKVIATRHSHESQDLRVIDFNCTTSSVSSALANTKDSPVLIDFFEDTERYRKQANKALEKYKEENDDFASFRVDRIERVARVRGGEGTGYFVDFSVRNCPRHHFPRHPNVFGFCRADLFYDVEALDLESPKNLVINCEVFDPQEHENINGVPPHLGHPFHWGGHERSSTTKPPFKPHGSRDHHHPHKPHEHGPPPPPDERDHSHGPPLPQGPPPLLPMSCSSCQHATFGTNGAQRHSHNNNSSDLHPHKHHSHEQHPHGHHPHAHHPHEHDTHRQHPHGHHPHGHHPHGHHPHGHHPHGHHPHCHDFQDYGPCDPPPHNQGHCCHGHGPPPGHLRRRGPGKGPRPFHCRQIGSVYRLPPLRKGEVLPLPEANFPSFPLPHHKHPLKPDNQPFPQSVSESCPGKFKSGFPQVSMFFTHTFPK
Consider B1, for which the “growth factor-induced CAM angiogenesis (newly formed vessels)” value in assay [1] (FGF-2 or VEGF-A 0.2 mg per filter, HRGP 3 mg per filter, three days) is on record as “efficient suppression of newly formed vessels”. Also, in assay [1] (FGF-2 or VEGF-A together with pHRGP, 3 mg per filter), the “effect on pre-established vessels of the CAM” value is reported as “remained unaffected”. The “reduction of tumour size compared to control-treated animals at sacrifice” value with T241 fibrosarcoma cells is on record as 67%.
